Results taken from patent US20220273711A1 (published 2022).
Positions count from the first letter of the chain named. Numbers in names are those of the source.

B1: Her2_Cage_L209A (Tuned Cage targeted to Her2 by DARPin (L209A)) (designed binder)
chain: MGSHHHHHHGSGSENLYFQGSGGSDLGKKLLEAARAGQDDEVRILMANGADVNAKDEYGLTPLYLATAHGHLEIVEVLLKNGADVNAVDAIGFTPLHLAAFIGHLEIAEVLLKHGADVNAQDKFGKTAFDISIGNGNEDLAEILQKLNSGSGSGKPGQASGSELARKLLEASTKLQRLNIRLAEALLEAIARLQELNLELVYLAVELTDPKRIRDEIKEVKDKSKEIIRRAEKEIDDAAKESEKILEEAREAISGSGSELAKLLLKAIAETQDLNLRAAKAFLEAAAKLQELNIRAVELLVKLTDPATIREALEHAKRRSKEIIDEAERAIRAAKRESERIIEEARRLIEKGSGSGSELARELLRAHAQAQRLNLELLRELLRALAQLQELNLDLLRLASELTDEIWIAQELRRIGDEFNAYYADAERLIREAAAASEKISREAERLIR
B2: Her2_Cage_I287S (Tuned Cage targeted to Her2 by DARPin (I287S)) (designed binder)
chain: B1 chain with A370L, I448S
B3: Her2_Cage (Original Cage targeted to Her2 by DARPin) (designed binder)
chain: B1 chain with A370L
B4: Her2_Cage_I287A (Tuned Cage targeted to Her2 by DARPin (I287A)) (designed binder)
chain: B1 chain with A370L, I448A
B5: Her2_Cage_I269S (Tuned Cage targeted to Her2 by DARPin (I269S)) (designed binder)
chain: B1 chain with A370L, I430S

molecular target: biotinylated Bcl2 (wild-type non-optimized Bcl2 with C-terminal Avi and 6xHis-tags) (UniProt P10415 1-207, enzymatically biotinylated using BirA (Avi tag)); test: BLI; midpoint; Cage plus Key_EGFR, co-localization-independent
Sequence (P10415 1-207): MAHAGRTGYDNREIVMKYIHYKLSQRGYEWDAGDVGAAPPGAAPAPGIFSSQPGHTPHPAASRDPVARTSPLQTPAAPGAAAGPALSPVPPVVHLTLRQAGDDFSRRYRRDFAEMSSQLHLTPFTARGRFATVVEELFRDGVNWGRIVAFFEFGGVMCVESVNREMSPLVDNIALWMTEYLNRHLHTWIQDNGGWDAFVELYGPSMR

Row | Binder | EC50 [nM]
1 | B1 | 23
2 | B2 | 8.7
3 | B3 | 63
4 | B4 | 12
5 | B5 | 8.4
